Source: the supplement of paper PMC9732359
± gives the uncertainty stated by the source.

Experiment: protein stability index of a GFP-peptide fusion (yeast GPS) (PSI 1-4); higher = more stable; sorted into four equal gates, so the index is relative within each strain
In short: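 Yeast carrying a pooled library were grown to mid-log phase in leucine-free medium. Each library plasmid expresses Cherry and has a tiled 17-residue yeast protein peptide fused downstream of GFP. Cells were sorted into four equal gates by GFP/Cherry ratio, and plasmids from each gate were PCR-amplified, Illumina-sequenced and assigned to strains by barcode. Summing, across gates, the read frequency times the gate number gave each peptide's protein stability index.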

Sequence | protein stability index (doa10∆) | protein stability index (pdr5∆) | protein stability index (san1∆) | protein stability index (ubr1∆)
GAVIQLLKSTGLHPFEV [RPB4] | 3.32 ± 0.13 | 3.19 ± 0.14 | 3.07 ± 0.2 | 2.99 ± 0.084
GYFIINGSEKVLIAQER [RPB2] | 3.14 ± 0.21 | 2.94 ± 0.17 | 3.16 ± 0.18 | 2.15 ± 0.26
KKFLRVRIFTKIESEDD [SRB4] | 1.46 ± 0.092 | 1.26 ± 0.089 | 1.16 ± 0.13 | 1.11 ± 0.083
YDPKDGLYKMMEERDGA [AAR2] | 3.41 ± 0.12 | 2.94 ± 0.11 | 3.4 ± 0.092 | 
ELMKLDGTEYVLSSVRE [MED6] | 3.36 ± 0.083 | 3.27 ± 0.08 | 3.16 ± 0.048 | 3.15 ± 0.05
SLAVRSLQDRSSLVRRN [YCS4] | 2.4 ± 0.041 | 2.71 ± 0.047 | 2.35 ± 0.045 | 2.59 ± 0.038
SFLGYLRYVKQIEGPFL [ISW2] | 2.28 ± 0.061 | 2.42 ± 0.046 | 2.45 ± 0.053 | 2.4 ± 0.04
GLDQSRIPFSERKLKFS [FAS1] | 1.81 ± 0.061 | 1.29 ± 0.059 | 1.11 ± 0.085 | 1.12 ± 0.048
MMTRRVVMAMYNPKMID [RET1] | 3.46 ± 0.15 | 3.37 ± 0.19 | 2.62 ± 0.29 | 3.05 ± 0.094
LIDSLPGVDVSAEEQLR [SRB7] | 2.59 ± 0.064 | 2.23 ± 0.055 | 1.96 ± 0.068 | 1.84 ± 0.043
SQSKMMSSQISSLIPHC [MTR3] | 2.35 ± 0.057 | 2.09 ± 0.039 | 2.21 ± 0.048 | 2.31 ± 0.042
GPRNTEEKGWVPVTKLG [RPS2] | 3.55 ± 0.1 | 3.46 ± 0.1 | 3.61 ± 0.05 | 3.67 ± 0.082
TLEDKFLLLAVNKYGLR [ISW2] | 2.31 ± 0.058 | 2.15 ± 0.058 | 1.9 ± 0.11 | 2.29 ± 0.049
LTSTKVKQLENVSSNIV [RPS20] | 1.75 ± 0.075 | 2.16 ± 0.12 | 2.65 ± 0.11 | 3.19 ± 0.075
SFAKLVPCEGKDVTQGL [SMC2] | 1.62 ± 0.08 | 2.07 ± 0.088 | 1.5 ± 0.23 | 1.86 ± 0.08
DGHLQFLNDVIPTTKNL [DLS1] | 2.96 ± 0.094 | 3.05 ± 0.068 | 2.8 ± 0.072 | 3.04 ± 0.073
ASPHASVRTAVFSALKN [ECM29] | 1.56 ± 0.051 | 1.58 ± 0.05 | 1.25 ± 0.083 | 1.42 ± 0.056
GPGGQAALRALARSGLR [RPS14B] | 2.41 ± 0.081 | 2.59 ± 0.11 | 2.22 ± 0.11 | 2.48 ± 0.085
QNQGGAQAPFDIDDLAF [ROX3] | 3.55 ± 0.13 |  | 3.4 ± 0.11 | 3.37 ± 0.065
IMAKRPFDKKSNSALFR [FAS1] | 2.84 ± 0.059 | 2.9 ± 0.062 | 2.87 ± 0.046 | 2.89 ± 0.05
GCVNSLISGPRNQILVS [YMR129W/POM152] |  | 1.36 ± 0.22 |  | 
LANYLTSALSELSGLIS [QCR2] | 1.48 ± 0.047 | 1.88 ± 0.044 | 1.84 ± 0.064 | 1.59 ± 0.033
DLINILEKKGFSEVYEY [LIN1] | 3.44 ± 0.17 | 3.21 ± 0.29 | 3.3 ± 0.099 | 3.17 ± 0.12
RIIEKSVRRSGALDVEG [RRP45] | 2.43 ± 0.07 | 2.65 ± 0.075 | 2.47 ± 0.11 | 2.53 ± 0.072
TPAELVGKFLGYVSSLV [FAS1] | 1.93 ± 0.064 | 2.04 ± 0.085 | 1.73 ± 0.081 | 2.06 ± 0.055
IYNGKAFNQVEIRPEML [RPS15] | 2.9 ± 0.12 | 3.04 ± 0.18 | 3.39 ± 0.11 | 3.26 ± 0.14
NVGDNNSTASSSNISPE [ARP7] | 2.83 ± 0.089 | 3.11 ± 0.062 | 3.04 ± 0.055 | 3.08 ± 0.045

Sequence | protein stability index (doa10∆) | protein stability index (pdr5∆) | protein stability index (san1∆) | protein stability index (ubr1∆)
VIVTDPRSDAQAIKEAS [RPS0A] | 2.88 ± 0.089 | 2.96 ± 0.08 | 2.92 ± 0.068 | 2.91 ± 0.061
SVSSPIELNFDAVKDFK [QCR2] | 1.89 ± 0.069 | 1.67 ± 0.065 | 2.5 ± 0.09 | 1.57 ± 0.053
IKGIREYEEWQKSVSLL [YDL116W/NUP84] | 2.08 ± 0.14 | 2.66 ± 0.12 | 2.5 ± 0.17 | 2.55 ± 0.095
EIQEELERFNKRADISK [SMC1] |  |  |  | 3.23 ± 0.18
SPIPFPPLTYKNDTKIL [PRP8] | 2.91 ± 0.057 | 2.56 ± 0.045 | 2.73 ± 0.059 | 2.24 ± 0.029
SKTWETYEMRIHKRYID [RPS20] | 2.45 ± 0.13 | 3 ± 0.091 | 1.84 ± 0.18 | 3.21 ± 0.072
LRSKTSAGRIESNNPSH [SIR4] | 2.56 ± 0.1 | 2.48 ± 0.081 | 2.55 ± 0.18 | 2.79 ± 0.098
KERTKSLEHELKRSTEL [YIL149C/MLP2] | 3.04 ± 0.15 | 3.36 ± 0.28 | 2.47 ± 0.12 | 3.12 ± 0.094
NLNVYIQVFEKPFLKKT [CDC53] | 2.2 ± 0.071 | 2.23 ± 0.056 | 2.57 ± 0.074 | 2.63 ± 0.057
LLKKATKPEVASDMSDE [CDC53] | 2.67 ± 0.11 | 2.61 ± 0.14 | 2.84 ± 0.086 | 2.89 ± 0.11
SAIEHTTLKSVTIASEI [RPO21] | 2.54 ± 0.085 | 2.39 ± 0.077 | 2.57 ± 0.078 | 2.16 ± 0.045
VDTGLQPQHPHYVSTSK [YLR018C/POM34] | 2.38 ± 0.05 | 2.77 ± 0.045 | 2.88 ± 0.05 | 2.9 ± 0.042
QRDRHTLAYDRGHRIRR [PRP8] | 3.01 ± 0.1 | 3.21 ± 0.074 | 2.83 ± 0.095 | 2.87 ± 0.048
HFVRDLGTIESAQAETE [DIS3] | 2.16 ± 0.26 | 2.42 ± 0.13 | 2.85 ± 0.21 | 2.49 ± 0.095
FKKLNSKNMSKSPSLTA [YMR153W/NUP53] | 2.21 ± 0.065 | 2.38 ± 0.048 | 2.19 ± 0.067 | 2.13 ± 0.071
EVTFKNANIFSSVKCFG [FAS1] | 2.92 ± 0.046 | 2.81 ± 0.058 | 2.84 ± 0.063 | 3.06 ± 0.052
PLHLIFAQPVADIENST [SSN2] | 2.67 ± 0.078 | 2.51 ± 0.097 | 2.72 ± 0.13 | 2.67 ± 0.1
NDKSEVLKVYSMINNSN [SRB8] | 2.9 ± 0.077 | 2.91 ± 0.07 | 2.86 ± 0.075 | 2.63 ± 0.071
VLYQSNATHDEDEFIVQ [SWP82] | 3.05 ± 0.041 | 3.14 ± 0.038 | 3.11 ± 0.039 | 3.151 ± 0.028
DKDSTKEVASLPNKSTI [FAS2] | 3.13 ± 0.089 | 3.1 ± 0.12 | 3.02 ± 0.072 | 3.21 ± 0.14
PSLIQEEEEDTTTTANI [NUT1] | 3.04 ± 0.11 | 3.12 ± 0.16 | 3.18 ± 0.12 | 3.16 ± 0.19
GKLEVPGYVDIVKTSSG [RPS19A] | 3.38 ± 0.15 | 2.85 ± 0.092 | 3.19 ± 0.07 | 3.2 ± 0.06
ESPNYCNALIHIKFSAG [SRB4] | 1.66 ± 0.042 | 1.83 ± 0.039 | 1.93 ± 0.069 | 2.04 ± 0.034
SAAELERLDKDKDRDTR [SNF5] | 1.76 ± 0.087 | 1.46 ± 0.14 | 1.9 ± 0.12 | 2.95 ± 0.11
QSTPQPDDMVEINSVGN [ITC1] | 3.2 ± 0.11 | 3.42 ± 0.043 | 3.04 ± 0.13 | 3.18 ± 0.075
AISTGAKIDVMLTIARL [RPN7] | 3.31 ± 0.16 | 3.23 ± 0.099 | 3.33 ± 0.054 | 3.38 ± 0.075
